From patent US20250043022A1 (JIANGSU HENGRUI PHARMACEUTICALS, published 2025)

B1: hu2H1L1 (antibody, human IgG1, kappa, V domains shown)
VH: EVQLVESGGGLVQPGGSLRLSCAASGFTFSDYYMAWVRQAPGKGLEWVANINFDGSSTYYLDSLKSRFTISRDNAKNSLYLQMNSLRAEDTAVYYCARDLDGYYGYFDVWGQGTTVTVSS
VL: EIVLTQSPDFQSVTPKEKVTITCSASSSVSHMYWYQQKPDQSPKLLIYRTSNLASGVPSRFSGSGSGTDFTLTINSLEAEDAATYYCQQYHSYPLMFGQGTKLEIKR
B2: hu27H1L6 (antibody, human IgG1, kappa)
heavy: not shown
light: QIVLTQSPDFQSVTPKEKVTIQCSASSSVSYMYWYQQKPDQSPKPWIYRTSNLASGVPSRFSGSGSGTDYTLTINSLEAEDAATYYCQQYHSYPLTFGQGTKLEIKRTVAAPSVFIFPPSDEQLKSGTASVVCLLNNFYPREAKVQWKVDNALQSGNSQESVTEQDSKDSTYSLSSTLTLSKADYEKHKVYACEVTHQGLSSPVTKSFNRGEC
B3: hu15H4L2 (antibody, human IgG1, kappa, V domains shown)
VH: EFQLVQSGAEVKKPGASVKVSCKASGYSFTDHNMNWVRQAPGQRLEWMGLINPNYGTADYNQKFKGRVTLTVDQSATTAYMELSSLRSEDTAVYYCARGSSLFAYWGQGTLVTVSS
VL: DIQMTQSPSSLSASVGDRVTITCKASQGVDTAVAWYQQKPGKSPKLLIYWASTRHTGVPDRFSGSGSGTDFTLTISSLQPEDVATYYCQQYSRYPLTFGQGTKLEIKR
B4: hu31H1L1 (antibody, human IgG1, kappa, V domains shown)
VH: EVQLVESGGGLVQPGGSLRLSCAASGFTFSDYYMAWVRQAPGKGLEWVASINYDGSSTYYLDSLKSRFTISRDNAKNSLYLQMNSLRAEDTAVYYCAGSDGYWAWFAYWGQGTLVTVSS
VL: DIQMTQSPSSLSASVGDRVTITCRASGNIHNYLAWYQQKPGKAPKLLIYNAETLADGVPSRFSGSGSGTDFTLTISSLQPEDFATYYCQHFWSTPPTFGGGTKVEIKR
B5: hu41H2L2 (antibody, human IgG1, kappa, V domains shown)
VH: EVQLVQSGAEVKKPGASVKVSCKASGYTFTSYGISWVRQAPGQGLEWMGEIFPRRGNTYYNEKFRGRVTLTADKSTSTAYMELRSLRSDDTAVYYCARVFDGYYNYAMDYWGQGTTVTVSS
VL: DIQMTQSPSSLSASVGDRVTITCRASQDIGSSLNWLQQKPGKAIKRLIYATSSLDSGVPSRFSGSRSGTDYTLTISSLQPEDFATYYCLQYASSPYTFGGGTKVEIKR
B6: hu43H3L2 (antibody, human IgG1, kappa, V domains shown)
VH: EVQFVESGGGLVQPGGSLRLSCAASGFTFSNYWMNWLRQAPGKGLEWVAQVRLKSDNYATHYAESVKGRFTISREDAKNSAYLQMNSLRAEDTAVYYCSENYYGPAGPFDFWGQGTTVTVSS
VL: DIQMTQSPSSLSASVGDRVTITCKASQNVHTSVAWYQQKPGKSPKLLIYSASNRYSGVPSRFSGSGSGTDFTLTISSLQPEDVATYYCQQYSSYPLTFGQGTKLEIKR
B7: hu46H2L2 (antibody, human IgG1, kappa, V domains shown)
VH: EVQLVESGGGLVKPGGSLRLSCAASGFTFSNYGMSWVRQAPGKGLEWVSTIGSGGGYTYYSDSVKGRFTISRDNAKNSLYLQMNSLRAEDTAVYYCVRHPQIGYWGQGTLVTVSS
VL: DIQMTQSPSSLSASVGDRVTITCKASQSVGTAVAWYQQKPGKAPKLLIYSASSRYTGVPSRFSGSGSGTDFTLTISSLQPEDFADYFCHQYSSYPLTFGGGTKVEIKR
B8: hu71H1L2 (antibody, human IgG1, kappa)
heavy: not shown
light: DVVVTQTPLSLPVTPGEPASISCRSSQSLVHSYGNTYLHWYLQKPGQSPQLLIYKVSNRFSGVPDRFSGSGSGTDFTLKISRVEAEDVGVYYCSQTTHVPWTFGGGTKVEIKRTVAAPSVFIFPPSDEQLKSGTASVVCLLNNFYPREAKVQWKVDNALQSGNSQESVTEQDSKDSTYSLSSTLTLSKADYEKHKVYACEVTHQGLSSPVTKSFNRGEC
B9: hu71H2L1 (antibody, human IgG1, kappa)
heavy: not shown
light: DIVMTQTPLSLPVTPGEPASISCRSSQSLVHSYGNTYLHWYLQKPGQSPQLLIYKVSNRFSGVPDRFSGSGSGTDFTLKISRVEAEDVGVYYCSQTTHVPWTFGGGTKVEIKRTVAAPSVFIFPPSDEQLKSGTASVVCLLNNFYPREAKVQWKVDNALQSGNSQESVTEQDSKDSTYSLSSTLTLSKADYEKHKVYACEVTHQGLSSPVTKSFNRGEC
B10: hu71H2L2 (antibody, human IgG1, kappa)
heavy: not shown
light: DVVVTQTPLSLPVTPGEPASISCRSSQSLVHSYGNTYLHWYLQKPGQSPQLLIYKVSNRFSGVPDRFSGSGSGTDFTLKISRVEAEDVGVYYCSQTTHVPWTFGGGTKVEIKRTVAAPSVFIFPPSDEQLKSGTASVVCLLNNFYPREAKVQWKVDNALQSGNSQESVTEQDSKDSTYSLSSTLTLSKADYEKHKVYACEVTHQGLSSPVTKSFNRGEC
B11: hu71H4L1 (antibody, human IgG1, kappa)
heavy: not shown
light: DIVMTQTPLSLPVTPGEPASISCRSSQSLVHSYGNTYLHWYLQKPGQSPQLLIYKVSNRFSGVPDRFSGSGSGTDFTLKISRVEAEDVGVYYCSQTTHVPWTFGGGTKVEIKRTVAAPSVFIFPPSDEQLKSGTASVVCLLNNFYPREAKVQWKVDNALQSGNSQESVTEQDSKDSTYSLSSTLTLSKADYEKHKVYACEVTHQGLSSPVTKSFNRGEC
B12: hu71H4L2 (antibody, human IgG1, kappa)
heavy: not shown
light: DVVVTQTPLSLPVTPGEPASISCRSSQSLVHSYGNTYLHWYLQKPGQSPQLLIYKVSNRFSGVPDRFSGSGSGTDFTLKISRVEAEDVGVYYCSQTTHVPWTFGGGTKVEIKRTVAAPSVFIFPPSDEQLKSGTASVVCLLNNFYPREAKVQWKVDNALQSGNSQESVTEQDSKDSTYSLSSTLTLSKADYEKHKVYACEVTHQGLSSPVTKSFNRGEC
B13: chi73 (antibody, human IgG1, kappa, V domains shown)
VH: QVQLQQSGPELVKPGASVKISCKASGYAFSTSWMNWVKERPGKGLEWIGRIYPGDGDTKYNGKFQGKATLTADKSSSTAYMKLSSLTSEDSAVYFCVRSIYYLYYFDYWGQGTTLTVSS
VL: DIQMTQPTSSLSASLGDRVTISCSTSQDIYNNLSWFQQKPDGTVRLLIYYTSSLHSGVPSRFSGSGSGTDYSLTISNLEPEDIATYYCQQYNNLPFTFGGGTNLEIRR
B14: hu27H1L2 (antibody, human IgG1, kappa)
heavy: not shown
light: EIVLTQSPDFQSVTPKEKVTITCSASSSVSYMYWYQQKPDQSPKPWIYRTSNLASGVPSRFSGSGSGTDYTLTINSLEAEDAATYYCQQYHSYPLTFGQGTKLEIKRTVAAPSVFIFPPSDEQLKSGTASVVCLLNNFYPREAKVQWKVDNALQSGNSQESVTEQDSKDSTYSLSSTLTLSKADYEKHKVYACEVTHQGLSSPVTKSFNRGEC
B15: hu27H1L1 (antibody, human IgG1, kappa)
heavy: not shown
light: EIVLTQSPDFQSVTPKEKVTITCSASSSVSYMYWYQQKPDQSPKPWIYRTSNLASGVPSRFSGSGSGTDFTLTINSLEAEDAATYYCQQYHSYPLTFGQGTKLEIKRTVAAPSVFIFPPSDEQLKSGTASVVCLLNNFYPREAKVQWKVDNALQSGNSQESVTEQDSKDSTYSLSSTLTLSKADYEKHKVYACEVTHQGLSSPVTKSFNRGEC
B16: hu27H1L3 (antibody, human IgG1, kappa)
heavy: not shown
light: QIVLTQSPDFQSVTPKEKVTITCSASSSVSYMYWYQQKPDQSPKPWIYRTSNLASGVPSRFSGSGSGTDYTLTINSLEAEDAATYYCQQYHSYPLTFGQGTKLEIKRTVAAPSVFIFPPSDEQLKSGTASVVCLLNNFYPREAKVQWKVDNALQSGNSQESVTEQDSKDSTYSLSSTLTLSKADYEKHKVYACEVTHQGLSSPVTKSFNRGEC
B17: hu27H1L4 (antibody, human IgG1, kappa)
heavy: not shown
light: EIVLTQSPDFQSVTPKEKVTIQCSASSSVSYMYWYQQKPDQSPKPWIYRTSNLASGVPSRFSGSGSGTDFTLTINSLEAEDAATYYCQQYHSYPLTFGQGTKLEIKRTVAAPSVFIFPPSDEQLKSGTASVVCLLNNFYPREAKVQWKVDNALQSGNSQESVTEQDSKDSTYSLSSTLTLSKADYEKHKVYACEVTHQGLSSPVTKSFNRGEC
B18: hu27H1L5 (antibody, human IgG1, kappa)
heavy: not shown
light: EIVLTQSPDFQSVTPKEKVTIQCSASSSVSYMYWYQQKPDQSPKPWIYRTSNLASGVPSRFSGSGSGTDYTLTINSLEAEDAATYYCQQYHSYPLTFGQGTKLEIKRTVAAPSVFIFPPSDEQLKSGTASVVCLLNNFYPREAKVQWKVDNALQSGNSQESVTEQDSKDSTYSLSSTLTLSKADYEKHKVYACEVTHQGLSSPVTKSFNRGEC
B19: Chi31 (antibody, human IgG1, kappa, V domains shown)
VH: EVKLVESEGGLVQPGSSKKLSCTASGFTFSDYYMAWVRQVPEKGLEWVASINYDGSSTYYLDSLKSRFIISRDNAKNNLYLQMNSLKSEDTATYYCAGSDGYWAWFAYWGQGTLVTVSA
VL: DIQMTQSPASLSASVGEAVTITCRASGNIHNYLAWYQQKQGKSPQLLVYNAETLADGVPSRFSGSGSGTQFSLKINSLRPEDFGSYYCQHFWSTPPTFGGGTKLEIKR

What was measured:
[1] = biological target: T1, human PSMA antigen (R&D SYSTEM, 4234-ZN-010) (human, UniProt Q04609 44-750); experiment: ELISA, plate-bound PSMA antigen
T1 construct: bought antigen
Experimental: To test the ability of the PSMA-targeting humanized antibodies of the present disclosure to bind to PSMA antigen, the ELISA method was used in this test example to measure the binding of the PSMA-targeting humanized antibodies to human PSMA antigen (purchased from R&D SYSTEM, 4234-ZN-010). The specific steps are as follows: A 96-well plate was coated with PSMA antigen at 1 μg/well and placed at 4° C. overnight. After the supernatant was discarded, the plate was blocked with 5% skim milk for 2 h. Different concentrations of humanized antibodies were prepared using 1% BSA. The initial concentration was 10 μg/mL and was serially diluted 4-fold to obtain 12 concentrations. After the blocked 96-well plate was washed twice, the […] was added, and the plate was incubated at 4° C. for 1 h. After four washes, the plate was incubated with Strepidation-HRP secondary antibody (1:10,000) at 4° C. for 1 h. After color development with TMB, the reaction was stopped with 0.1 M sulfuric acid.

[2] = biological target: T2, human PSMA on cells (Cho-hPSMA, CHO-K1 cells overexpressing full-length human PSMA) (human, UniProt Q04609 1-750); experiment: cell ELISA (OD450), Cho-hPSMA cells
T2 construct: whole, on cells; also called cell surface PSMA; PSMA-expressing Lncap cells
Experimental: Experiment 2: Cells were cultured and inoculated onto a cell plate using the same method as in Experiment 1. The antibodies were serially diluted, and the antibody solutions were added to the cell plate at 100 μL/well. The plate was incubated at 4° C. for 1 h and then washed. An HRP-Goat Anti-human IgG (H+L) secondary antibody dilution (1:8000) was added to the cell plate at 100 μL/well, and the plate was incubated at 4° C. for 1 h and then washed by centrifugation. After color development with TMB, the reaction was stopped with 0.1 M sulfuric acid, and OD450 values were measured.

T2 sequence (Q04609 whole entry): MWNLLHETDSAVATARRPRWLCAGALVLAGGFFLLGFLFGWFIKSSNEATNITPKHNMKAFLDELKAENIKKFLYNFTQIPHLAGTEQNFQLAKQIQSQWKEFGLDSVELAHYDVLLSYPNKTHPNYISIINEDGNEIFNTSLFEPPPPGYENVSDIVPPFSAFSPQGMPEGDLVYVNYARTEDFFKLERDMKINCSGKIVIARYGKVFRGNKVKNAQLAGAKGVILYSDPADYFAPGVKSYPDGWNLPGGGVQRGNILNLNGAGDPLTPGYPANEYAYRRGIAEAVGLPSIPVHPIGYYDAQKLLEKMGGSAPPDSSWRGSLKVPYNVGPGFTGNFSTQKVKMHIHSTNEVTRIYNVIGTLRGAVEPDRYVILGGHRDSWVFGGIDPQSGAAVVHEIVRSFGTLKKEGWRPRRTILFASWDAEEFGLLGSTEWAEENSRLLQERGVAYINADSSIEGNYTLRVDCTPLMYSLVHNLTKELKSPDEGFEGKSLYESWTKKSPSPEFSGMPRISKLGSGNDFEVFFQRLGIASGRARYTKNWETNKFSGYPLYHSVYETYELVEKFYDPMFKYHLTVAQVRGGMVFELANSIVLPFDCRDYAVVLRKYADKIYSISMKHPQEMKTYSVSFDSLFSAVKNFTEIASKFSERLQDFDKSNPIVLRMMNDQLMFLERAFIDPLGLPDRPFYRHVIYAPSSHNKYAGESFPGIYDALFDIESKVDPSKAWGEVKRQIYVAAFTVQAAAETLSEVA
T1 sequence (Q04609 44-750 limits assumed): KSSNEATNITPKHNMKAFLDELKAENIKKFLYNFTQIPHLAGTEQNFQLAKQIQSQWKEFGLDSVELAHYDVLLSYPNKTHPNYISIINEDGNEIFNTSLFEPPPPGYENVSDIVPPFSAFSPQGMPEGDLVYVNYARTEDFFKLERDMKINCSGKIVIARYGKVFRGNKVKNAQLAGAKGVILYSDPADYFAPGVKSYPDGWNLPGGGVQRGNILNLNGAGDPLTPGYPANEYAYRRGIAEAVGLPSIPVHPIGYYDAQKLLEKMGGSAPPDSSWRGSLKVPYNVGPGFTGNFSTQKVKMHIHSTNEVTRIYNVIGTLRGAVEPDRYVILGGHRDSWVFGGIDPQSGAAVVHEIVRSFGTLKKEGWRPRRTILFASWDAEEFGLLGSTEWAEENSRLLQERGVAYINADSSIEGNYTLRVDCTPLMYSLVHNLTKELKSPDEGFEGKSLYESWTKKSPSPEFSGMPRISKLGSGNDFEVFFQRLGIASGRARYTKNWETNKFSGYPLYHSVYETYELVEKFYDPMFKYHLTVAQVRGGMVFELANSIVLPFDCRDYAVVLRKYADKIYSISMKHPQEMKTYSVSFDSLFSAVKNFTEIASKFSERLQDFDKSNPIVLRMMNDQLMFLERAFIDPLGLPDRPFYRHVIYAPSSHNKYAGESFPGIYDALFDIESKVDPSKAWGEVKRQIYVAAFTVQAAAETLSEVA

Row | Binder | EC50 [1] | Top (maximum absorbance) [1] | EC50 [2]
1 | B1 | 0.0354 µg/mL | 0.975 absorbance | –
2 | B2 | 0.398 µg/mL | 0.553 absorbance | 2.77 µg/mL
3 | B3 | 0.0421 µg/mL | 2.23 absorbance | 0.0795 µg/mL
4 | B4 | 0.0864 µg/mL | 1.76 absorbance | 0.142 µg/mL
5 | B5 | 0.61 µg/mL | 0.421 absorbance | 1.1 µg/mL
6 | B6 | 1.06 µg/mL | 0.245 absorbance | 4.03 µg/mL
7 | B7 | 0.0365 µg/mL | 1.67 absorbance | 0.0202 µg/mL
8 | B8 | – | – | 0.11 µg/mL
9 | B9 | – | – | 0.0631 µg/mL
10 | B10 | – | – | 0.116 µg/mL
11 | B11 | – | – | 0.101 µg/mL
12 | B12 | – | – | 0.0867 µg/mL
13 | B13 | 0.029 µg/mL | 2.08 absorbance | –
14 | B14 | – | – | 1.65 µg/mL
15 | B15 | – | – | 1.17 µg/mL
16 | B16 | – | – | 1.4 µg/mL
17 | B17 | – | – | 1.73 µg/mL
18 | B18 | – | – | 2.39 µg/mL
19 | B19 | – | – | 0.141 µg/mL
